T1: recombinant human EFNA3 His fusion protein (human, UniProt P52797 23-214)
T1 construct: also called ephrinA3-His; immobilized human EFNA3; not shown: His tag
T1 sequence: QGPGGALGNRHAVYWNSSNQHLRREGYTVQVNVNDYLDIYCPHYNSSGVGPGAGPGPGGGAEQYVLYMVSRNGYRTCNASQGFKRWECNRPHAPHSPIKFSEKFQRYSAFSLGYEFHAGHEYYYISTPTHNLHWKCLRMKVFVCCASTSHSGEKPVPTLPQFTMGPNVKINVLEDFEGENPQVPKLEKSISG

T2: mouse EFNA3 (mouse, UniProt O08545)
T2 construct: the sheet prints only 'Ms XR'; also called mouse ephrin-A3 homolog
T2 sequence (ligand, looked up): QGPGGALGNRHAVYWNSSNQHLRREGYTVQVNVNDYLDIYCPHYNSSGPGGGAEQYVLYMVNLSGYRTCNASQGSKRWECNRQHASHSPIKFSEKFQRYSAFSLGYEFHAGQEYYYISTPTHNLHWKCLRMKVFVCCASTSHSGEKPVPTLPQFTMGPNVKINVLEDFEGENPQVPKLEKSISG

B1: SC9.20 (antibody, V domains shown)
VH: DVQLQESGPGLVKPSQSLSLTCSVTGYSITSGYYWNWIRQFPGNRLEWMAYISYDGSNDYNPSLKNRISITRDTSKNQFFLKLNSVTTEDTATYYCARGYPILFAYWGQGTLVTVSA
VL: DIKMTQSPSSMNASLGERVSITCKTSQDINSYLSWLQQKPGKSPKTLIYRANRLVDGVPSRFSGSGSGQDYSLTISSLEYEDMGIYYCLQYDEFPLTFGIGTKLELK
B2: SC11.32 (antibody, V domains shown)
VH: QVQLQQPGAEIVRPGASVKLSCKASGYTFTAYWMHWVKQRPGQGPEWIGAIDPSDSYTYYNQKFKGKATLTVDTSSNSAYMQLSSLTSEDSAVYFCARWDYYDGNWGQGTTLTVSS
VL: DVVMTQTPLSLPVSLGDQASISCRSSQSLVHSDGNTYLHWYLQKPGQSPKLLIYRVSNRFSGVPDRFSGSGSGTDFTLKISRVEAEDLGVYFCSQSTHVPYTFGGGTKLEIK
notes: Murine monoclonal antibody from a hybridoma; also called EFNA3 modulator SC11.32
B3: SC11.34 (antibody, V domains shown)
VH: DVHLQETGPGLVKPSQSLSVTCTVTGYSITSDYAWNWIRQFPGNKLEWMGYISYSGGTRYNPSVKSRISITRDTSKNQFFLQLNSVTTEDTATYYCARGPYAGYPAWFDYWGPGTLVTVSA
VL: ENVLTQSPAIMSASLGEKVTMSCRANSSINYMYWYQQKSDASPKLWIYYTSNLAPGVPARFSGSGSGNSYSLTISSMEGEDAATYYCQQFTSSPWTFGGGTKLEIK
notes: Murine monoclonal antibody from a hybridoma; also called EFNA3 modulator SC11.34
B4: SC11.51 (antibody, V domains shown)
VH: EVQLQQSGPELVKPGASVKISCKASGYTFTDYYMNWVKQTHGKSLEWIGDITPNSGGPTYNQNFKGKATLTVDRSSTTAFMELRSLTSDDSAVYYCVRSAYYYGTNYDFDYWGQGTTLTVSS
VL: QIVLTQSPAIMSASPGEKVTMTCSASSSVTYMYWYQQKPGSSPKPWIYRTSNLASGVPTRFSGSGSGTSYSLTISSVEAEDTATYYCQQYSDYPLTFGAGTKLELK
notes: Murine monoclonal antibody from a hybridoma; also called EFNA3 modulator SC11.51

Legend:
[1] = biological target: recombinant human EFNA1 His fusion protein (human) (UniProt P20827); test: BLI (ForteBio RED), antigen concentration series; column Affinity (nM)
Chain of recombinant human EFNA1 His fusion protein (human) (P20827 19-182 limits assumed): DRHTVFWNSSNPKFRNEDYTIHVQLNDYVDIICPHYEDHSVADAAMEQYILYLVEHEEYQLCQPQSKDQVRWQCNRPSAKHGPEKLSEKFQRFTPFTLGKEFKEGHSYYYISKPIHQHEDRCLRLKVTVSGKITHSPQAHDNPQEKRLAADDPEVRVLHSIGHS

[2] = biological target: T1, recombinant human EFNA3 His fusion …; test: as above
Procedure: Various methods were used to analyze the immunochemical characteristics of selected EFNA1 and EFNA3 modulators generated as set forth above. Specifically, a number of these antibodies were characterized as to affinity, kinetics, binning, and cross reactivity with regard to cynomolgus and mouse homologs (e.g., by ForteBio). The reactivity of the modulators was also measured by Western blot using reduced and non-reduced samples to provide some indication as to whether the epitopes were linear or not. In addition, the antibodies were tested for their ability to neutralize (e.g., block receptor ligand interaction as per Example 11), and were benchmarked for their relative EC₅₀ of killing by in vitro cytotoxicity assay (e.g., as per Examples 12-14). The results of this characterization are set forth in tabular form in FIG. 8 for modulators that primarily react with EFNA1 and in FIG. 9 for modulators that primarily react with EFNA3. Affinities and kinetic constants kₒₙ and koff of the selected modulators were measured using bio-layer interferometry analysis on a ForteBio RED (ForteBio, Inc.) with a standard antigen concentration series.

[3] = biological target: T2, mouse EFNA3; test: cross-reactivity with the mouse homolog (e.g. by ForteBio)

| Binder | Kd [1] [nM] | Kd [2] [nM] | binding result [3] |
| --- | --- | --- | --- |
| B1 | 0.5 | – | – |
| B2 | – | 0.2 | – |
| B3 | – | 2 | no binding |
| B4 | – | 1 | – |

From patent publication US20140302034A1 (STEM CENTRX, published 2014)
